# From article PMC8808070 (The Journal of Biological Chemistry, 2021)
# T1: YjgCD (ForCE1) (Bacillus subtilis, UniProt O34720)
# T1 construct: gene forC; full-length YjgC with N-terminal 6His tag and TEV site, copurified with untagged YjgD; homologous expression in B. subtilis 168; heterodimer 132 kDa; YjgC ~110 kDa, YjgD 21 kDa
# T1 sequence (O34720 1-985): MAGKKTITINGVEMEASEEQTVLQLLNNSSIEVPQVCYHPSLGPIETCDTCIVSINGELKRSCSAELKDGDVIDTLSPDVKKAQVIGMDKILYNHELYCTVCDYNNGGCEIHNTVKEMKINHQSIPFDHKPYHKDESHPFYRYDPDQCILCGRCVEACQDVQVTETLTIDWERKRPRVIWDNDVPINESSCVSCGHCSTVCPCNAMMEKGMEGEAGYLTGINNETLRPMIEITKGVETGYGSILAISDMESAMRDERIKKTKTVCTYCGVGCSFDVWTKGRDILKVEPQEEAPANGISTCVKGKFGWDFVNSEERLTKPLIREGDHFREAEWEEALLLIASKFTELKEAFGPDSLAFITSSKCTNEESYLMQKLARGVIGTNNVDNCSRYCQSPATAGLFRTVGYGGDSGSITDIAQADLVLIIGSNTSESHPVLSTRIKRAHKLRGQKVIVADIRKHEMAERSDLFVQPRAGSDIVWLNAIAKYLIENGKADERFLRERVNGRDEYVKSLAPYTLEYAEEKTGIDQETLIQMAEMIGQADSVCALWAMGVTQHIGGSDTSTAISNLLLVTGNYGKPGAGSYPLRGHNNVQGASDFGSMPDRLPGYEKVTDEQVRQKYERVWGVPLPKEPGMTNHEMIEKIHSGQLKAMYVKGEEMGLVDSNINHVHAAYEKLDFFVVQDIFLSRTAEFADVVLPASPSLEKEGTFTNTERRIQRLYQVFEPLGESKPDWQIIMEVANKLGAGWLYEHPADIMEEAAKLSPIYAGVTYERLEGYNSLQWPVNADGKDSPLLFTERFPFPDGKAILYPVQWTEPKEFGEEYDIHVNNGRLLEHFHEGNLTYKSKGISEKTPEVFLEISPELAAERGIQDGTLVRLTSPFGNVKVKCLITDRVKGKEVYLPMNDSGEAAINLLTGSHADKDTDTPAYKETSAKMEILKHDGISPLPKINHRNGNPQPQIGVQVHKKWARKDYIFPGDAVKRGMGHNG
# T1 sequence (O34681 1-186 partner): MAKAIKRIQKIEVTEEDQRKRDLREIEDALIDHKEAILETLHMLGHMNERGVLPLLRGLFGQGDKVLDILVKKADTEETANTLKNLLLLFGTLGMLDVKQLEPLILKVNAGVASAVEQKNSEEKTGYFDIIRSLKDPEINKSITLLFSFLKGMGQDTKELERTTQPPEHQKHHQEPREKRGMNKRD
# T2: YrhED (ForCE2) (Bacillus subtilis, UniProt Q795Y4)
# T2 construct: gene fdhE; full-length YrhE with N-terminal 6His tag and TEV site, copurified with untagged YrhD; homologous expression in B. subtilis 168; heterodimer 125 kDa; YrhE ~110 kDa, YrhD 17 kDa
# T2 sequence (Q795Y4 1-980): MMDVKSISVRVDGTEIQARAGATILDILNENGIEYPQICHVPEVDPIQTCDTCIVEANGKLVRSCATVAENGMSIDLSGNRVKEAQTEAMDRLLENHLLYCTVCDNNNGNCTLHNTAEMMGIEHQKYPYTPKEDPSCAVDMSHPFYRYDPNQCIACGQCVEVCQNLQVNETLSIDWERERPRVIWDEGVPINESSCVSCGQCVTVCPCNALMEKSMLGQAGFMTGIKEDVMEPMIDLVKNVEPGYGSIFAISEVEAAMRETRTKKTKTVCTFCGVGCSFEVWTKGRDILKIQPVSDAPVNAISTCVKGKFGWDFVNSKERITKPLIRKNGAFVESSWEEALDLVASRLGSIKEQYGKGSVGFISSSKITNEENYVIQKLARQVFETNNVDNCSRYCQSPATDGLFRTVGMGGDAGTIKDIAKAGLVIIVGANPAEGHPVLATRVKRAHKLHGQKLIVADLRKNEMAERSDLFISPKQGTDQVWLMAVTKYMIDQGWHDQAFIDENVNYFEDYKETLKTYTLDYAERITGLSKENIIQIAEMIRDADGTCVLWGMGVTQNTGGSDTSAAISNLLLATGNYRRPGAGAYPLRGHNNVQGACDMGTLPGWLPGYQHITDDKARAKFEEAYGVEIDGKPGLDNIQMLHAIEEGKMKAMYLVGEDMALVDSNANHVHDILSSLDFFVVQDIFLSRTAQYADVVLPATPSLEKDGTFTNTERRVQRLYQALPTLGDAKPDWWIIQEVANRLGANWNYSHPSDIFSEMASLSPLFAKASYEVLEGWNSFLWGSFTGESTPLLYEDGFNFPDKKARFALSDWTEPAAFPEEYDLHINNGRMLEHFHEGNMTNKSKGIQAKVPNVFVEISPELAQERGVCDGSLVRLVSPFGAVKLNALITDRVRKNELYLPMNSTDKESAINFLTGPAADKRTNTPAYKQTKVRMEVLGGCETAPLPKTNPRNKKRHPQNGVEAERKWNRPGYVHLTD
# T2 sequence (O05396 1-160 partner): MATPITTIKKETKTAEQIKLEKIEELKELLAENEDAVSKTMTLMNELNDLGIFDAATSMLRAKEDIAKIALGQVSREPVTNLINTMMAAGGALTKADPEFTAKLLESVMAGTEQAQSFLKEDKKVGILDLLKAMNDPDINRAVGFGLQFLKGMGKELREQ
# What was measured:
# YjgCD (ForCE1) [1] = target: T1, YjgCD (ForCE1); experiment: copurification, HPLC-ECD-MS of lipid extracts; EPR of bound menasemiquinone radical; format: binding; details: copurified without detergent; neutral menasemiquinone form seen by EPR at pH 6.0 and 7.5
# YrhED (ForCE2) = target: T2, YrhED (ForCE2); experiment: as above; format: binding; details: copurified without detergent; menasemiquinone radical seen by EPR
# YjgCD (ForCE1) [2] = target: T1, YjgCD (ForCE1); experiment: copurification, HPLC-ECD-MS of lipid extracts; format: binding; details: copurified without detergent, minor species
# purified protein [3] = substrate: CC1=CC(=O)c2ccccc2C1=O; experiment: purified protein; format: biochemical, Bacillus subtilis; details: 50 mM sodium formate as electron donor, 25 mM CHES pH 9, room temperature, anaerobic
# purified protein [4] = substrate: O=CO; experiment: purified protein; details: anaerobic
# [5] = benzyl viologen as electron acceptor (1.75 mM), 25 mM CHES pH 8.6, room temperature, pH 8.6
# [6] = benzyl viologen as electron acceptor (17.5 mM), 25 mM CHES pH 10, room temperature, pH 10.0
molecule,measurement,setting,value
CC(C)=CCC/C(C)=C/CC/C(C)=C/CC/C(C)=C/CC/C(C)=C/CC/C(C)=C/CC/C(C)=C/CC1=C(C)C(=O)c2ccccc2C1=O [MK-7],ForCE1-MK-7 ratio,YjgCD (ForCE1) [1],1:0.87
same,ForCE2-MK-7 ratio,YrhED (ForCE2),1:1.63
CC(C)=CCC/C(C)=C/CC/C(C)=C/CC/C(C)=C/CC/C(C)=C/CC/C(C)=C/CC/C(C)=C/CC/C(C)=C/CC1=C(C)C(=O)c2ccccc2C1=O [MK-8],"copurification, HPLC-ECD-MS of lipid extracts",YjgCD (ForCE1) [2],ForCE1 is also able to bind MK-8 at a low but significant ratio
"YrhED (ForCE2) (Bacillus subtilis subsp. subtilis str. 168) (protein, full-length YrhE with N-terminal 6His tag and TEV site, copurified with untagged YrhD; homologous expression in B. subtilis 168; heterodimer 125 kDa; YrhE ~110 kDa, YrhD 17 kDa) MMDVKSISVRVDGTEIQARAGATILDILNENGIEYPQICHVPEVDPIQTCDTCIVEANGKLVRSCATVAENGMSIDLSGNRVKEAQTEAMDRLLENHLLYCTVCDNNNGNCTLHNTAEMMGIEHQKYPYTPKEDPSCAVDMSHPFYRYDPNQCIACGQCVEVCQNLQVNETLSIDWERERPRVIWDEGVPINESSCVSCGQCVTVCPCNALMEKSMLGQAGFMTGIKEDVMEPMIDLVKNVEPGYGSIFAISEVEAAMRETRTKKTKTVCTFCGVGCSFEVWTKGRDILKIQPVSDAPVNAISTCVKGKFGWDFVNSKERITKPLIRKNGAFVESSWEEALDLVASRLGSIKEQYGKGSVGFISSSKITNEENYVIQKLARQVFETNNVDNCSRYCQSPATDGLFRTVGMGGDAGTIKDIAKAGLVIIVGANPAEGHPVLATRVKRAHKLHGQKLIVADLRKNEMAERSDLFISPKQGTDQVWLMAVTKYMIDQGWHDQAFIDENVNYFEDYKETLKTYTLDYAERITGLSKENIIQIAEMIRDADGTCVLWGMGVTQNTGGSDTSAAISNLLLATGNYRRPGAGAYPLRGHNNVQGACDMGTLPGWLPGYQHITDDKARAKFEEAYGVEIDGKPGLDNIQMLHAIEEGKMKAMYLVGEDMALVDSNANHVHDILSSLDFFVVQDIFLSRTAQYADVVLPATPSLEKDGTFTNTERRVQRLYQALPTLGDAKPDWWIIQEVANRLGANWNYSHPSDIFSEMASLSPLFAKASYEVLEGWNSFLWGSFTGESTPLLYEDGFNFPDKKARFALSDWTEPAAFPEEYDLHINNGRMLEHFHEGNMTNKSKGIQAKVPNVFVEISPELAQERGVCDGSLVRLVSPFGAVKLNALITDRVRKNELYLPMNSTDKESAINFLTGPAADKRTNTPAYKQTKVRMEVLGGCETAPLPKTNPRNKKRHPQNGVEAERKWNRPGYVHLTD",Km,purified protein [3],23 ± 5 µM
same,Vmax,purified protein [3],12.6 µmol/min
same,kcat,purified protein [3],26.4 ± 1.8 s⁻¹
same,Km,purified protein [4]; [5],1100 ± 100 µM
same,Vmax,purified protein [4]; [5],26.6 µmol/min
same,kcat,purified protein [4]; [5],55.8 s⁻¹
"YjgCD (ForCE1) (Bacillus subtilis subsp. subtilis str. 168) (protein, full-length YjgC with N-terminal 6His tag and TEV site, copurified with untagged YjgD; homologous expression in B. subtilis 168; heterodimer 132 kDa; YjgC ~110 kDa, YjgD 21 kDa) MAGKKTITINGVEMEASEEQTVLQLLNNSSIEVPQVCYHPSLGPIETCDTCIVSINGELKRSCSAELKDGDVIDTLSPDVKKAQVIGMDKILYNHELYCTVCDYNNGGCEIHNTVKEMKINHQSIPFDHKPYHKDESHPFYRYDPDQCILCGRCVEACQDVQVTETLTIDWERKRPRVIWDNDVPINESSCVSCGHCSTVCPCNAMMEKGMEGEAGYLTGINNETLRPMIEITKGVETGYGSILAISDMESAMRDERIKKTKTVCTYCGVGCSFDVWTKGRDILKVEPQEEAPANGISTCVKGKFGWDFVNSEERLTKPLIREGDHFREAEWEEALLLIASKFTELKEAFGPDSLAFITSSKCTNEESYLMQKLARGVIGTNNVDNCSRYCQSPATAGLFRTVGYGGDSGSITDIAQADLVLIIGSNTSESHPVLSTRIKRAHKLRGQKVIVADIRKHEMAERSDLFVQPRAGSDIVWLNAIAKYLIENGKADERFLRERVNGRDEYVKSLAPYTLEYAEEKTGIDQETLIQMAEMIGQADSVCALWAMGVTQHIGGSDTSTAISNLLLVTGNYGKPGAGSYPLRGHNNVQGASDFGSMPDRLPGYEKVTDEQVRQKYERVWGVPLPKEPGMTNHEMIEKIHSGQLKAMYVKGEEMGLVDSNINHVHAAYEKLDFFVVQDIFLSRTAEFADVVLPASPSLEKEGTFTNTERRIQRLYQVFEPLGESKPDWQIIMEVANKLGAGWLYEHPADIMEEAAKLSPIYAGVTYERLEGYNSLQWPVNADGKDSPLLFTERFPFPDGKAILYPVQWTEPKEFGEEYDIHVNNGRLLEHFHEGNLTYKSKGISEKTPEVFLEISPELAAERGIQDGTLVRLTSPFGNVKVKCLITDRVKGKEVYLPMNDSGEAAINLLTGSHADKDTDTPAYKETSAKMEILKHDGISPLPKINHRNGNPQPQIGVQVHKKWARKDYIFPGDAVKRGMGHNG",Km,purified protein [3],25 ± 3 µM
same,Vmax,purified protein [3],7.5 µmol/min
same,kcat,purified protein [3],16.5 ± 0.6 s⁻¹
same,Km,purified protein [4]; [6],5100 ± 900 µM
same,Vmax,purified protein [4]; [6],43.7 µmol/min
same,kcat,purified protein [4]; [6],96.1 s⁻¹
